Experimental data: paper PMC12309418 (2025)

How the values were obtained:
[1] = target: T1, PLS2 RD-ABD1 (a.a. 1–385) (human, UniProt P13796 1-385); test: FP; pH 7.0
T1 chain: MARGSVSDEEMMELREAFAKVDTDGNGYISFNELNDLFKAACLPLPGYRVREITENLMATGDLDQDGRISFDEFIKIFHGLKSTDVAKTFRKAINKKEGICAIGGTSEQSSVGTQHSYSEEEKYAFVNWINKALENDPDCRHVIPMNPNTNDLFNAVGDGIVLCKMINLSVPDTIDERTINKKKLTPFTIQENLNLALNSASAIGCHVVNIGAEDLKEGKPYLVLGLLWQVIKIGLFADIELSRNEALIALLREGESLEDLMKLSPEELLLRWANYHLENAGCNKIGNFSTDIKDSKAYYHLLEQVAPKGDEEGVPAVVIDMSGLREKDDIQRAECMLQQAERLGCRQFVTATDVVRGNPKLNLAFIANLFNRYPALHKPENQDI

[2] = target: T1, PLS2 RD-ABD1 (a.a. 1–385); test: FP; pH 8.0

B1: fluorescein-maleimide labeled PLS2 ABD2 (FM-ABD2) (domain or fragment)
chain: PENQDIDWGALEGETREERTFRNWMNSLGVNPRVNHLYSDLSDALVIFQLYEKIKVPVDWNRVNKPPYPKLGGNMKKLENCNYAVELGKNQAKFSLVGIGGQDLNEGNRTLTLALIWQLMRRYTLNILEEIGGGQKVNDDIIVNWVNETLREAKKSSSISSFKDPKISTSLPVLDLIDAIQPGSINYDLLKTENLNDDEKLNNAKYAISMARKIGARVYALPEDLVEVNPKMVMTVFACLMGKGM
modifications: fluorescein maleimide (FM) label; labeled residue not stated
[1]
  Kd: 4.5 nM
[2]
  Kd: 8.7 nM
